The test has as its target T1, β-clamp protein from E. coli (E. coli, UniProt P0A988 1-366, labeled with a fluorescent molecule (site not stated)).
T1 construct: Fluorescently labelled for microscale thermophoresis; also called sliding clamp
Nature of the test: microscale thermophoresis, fluorescently labelled β-clamp, peptide titrated (table cell the 66th table, row 38, column 4 prints 'Nd'). A general note: Microscale thermophoresis detects binding through changes in fluorescence in a small temperature gradient.

T1 sequence (P0A988 whole entry): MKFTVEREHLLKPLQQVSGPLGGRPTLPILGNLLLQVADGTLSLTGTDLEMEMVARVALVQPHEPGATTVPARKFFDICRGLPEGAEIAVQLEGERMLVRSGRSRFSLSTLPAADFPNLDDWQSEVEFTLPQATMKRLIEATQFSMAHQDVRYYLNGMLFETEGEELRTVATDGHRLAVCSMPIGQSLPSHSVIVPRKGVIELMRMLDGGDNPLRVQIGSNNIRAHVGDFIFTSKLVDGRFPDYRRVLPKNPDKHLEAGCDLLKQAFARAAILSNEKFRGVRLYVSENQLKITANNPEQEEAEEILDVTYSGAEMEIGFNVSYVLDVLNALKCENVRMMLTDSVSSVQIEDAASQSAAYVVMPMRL

B1: R11 peptide (SEQ ID NO: 337) (peptide)
peptide: RRRRRRRRRRR
notes: Control peptide without APIM motif; also called cell penetrating peptide
Turning to B1, the binding result is “no binding”.

The values above are taken from US20180141977A1 (NORWEGIAN UNIVERSITY OF SCIENCE AND TECHNOLOGY NTNU, published 2018).
